Source: the RNAGym collection of RNA variant scans (doi:10.7554/elife.80360)

B1: Hairpin Ribozyme (parent)
chain: GUCCUCUUUCACGUGCGCGUGAAAGAGAGAAGUGAACCAGAGAAACACACGUUGUGGUAUAUUACCUGGUA

Variants of: B1
Assay: self-cleavage, relative activity (ratio to wild type); higher = more cleavage; co-transcriptional

Point of comparison: GUCCUCUUUCACGUGCACGUGAAAGAGAGAAGUGAACCAGGGAAACACACGUUGUGGUAUAUUACCUGGUA, self-cleavage 0.833. Against it:
- GUCCUCUUUCACGUGUGCGUGAAAGAGAGAAGGGAACCAGAGAAACACACGUUGUGGUAUAUUACCUGGUA — lower, 0.148
- GUCCUCUUUCACGUGCACGUGAAAGAGUGAAGUGAACCAGAGAAACACACGUUGUGGUAUAUUACCUGGUA — lower, 0.808
- GUCCUCUUUCACGUGCACGUGAAAGAGCGAAGUGAACCAGAGAAACACACGUUGUGGUAUAUUACCUGGUA — lower, 0.74
- GUCCUCUUUCACGUGCACGUGAAAGAGAGAAGUGAACCGGAGAAACACACGUUGUGGUAUAUUACCUGGUA — lower, 0.319
- GUCCUCUUUCACGUGUGCGUGAAAGAGAGAACUGAACCAGAGAAACACACGUUGUGGUAUAUUACCUGGUA — lower, 0.0977
- GUCCUCUUUCACGUGUGCGUGAAAGAGAGAAUUGAACCAGAGAAACACACGUUGUGGUAUAUUACCUGGUA — lower, 0.134
- GUCCUCUUUCACGUGUGCGUGAAAGAGAGAAGUGAACCAGAGAAACACACGUUGCGGUAUAUUACCUGGUA — lower, 0.251
- GUCCUCUUUCACGUGUGCGUGAAAGAGAGAAGUGAACCAGAGAAACACACGUUGUGGGAUAUUACCUGGUA — lower, 0.765
- GUCCUCUUUCACGUGGGCGUGAAAGAGAGAAGUGAACCAGAGAAACACACGUUGUGGUAUAUUACCUGGCA — lower, 0.829
- GUCCUCUUUCACGUGUGCGUGAAAGUGAGAAGUGAACCAGAGAAACACACGUUGUGGUAUAUUACCUGGUA — lower, 0.817
- GUCCUCUUUCACGUGUGCGUGAAAGAGAGAAGUGAACCAGAGAAACACACGUUGUGGUAUAUUACGUGGUA — lower, 0.228
- GUCCUCUUUCACGUGUGCGUGAAAGAGAGAAGUGAACCAGAGAAACACACGUUGUGGUAUAUUACUUGGUA — lower, 0.397
- GUCCUCUUUCACGUGUGCGUGAAAGAGAGAAGUGAACCAGAGAAACACACGUUGUGGUAUUUUACCUGGUA — lower, 0.256
- GUCCUCUUUCACGUGUGCUUGAAAGAGAGAAGUGAACCAGAGAAACACACGUUGUGGUAUAUUACCUGGUA — lower, 0.661
- GUCCUCUUUCACGUGCACGUGAAAGAGAGAAGUGAACCAGAGAAGCACACGUUGUGGUAUAUUACCUGGUA — lower, 0.15
- GUCCUCUUUCACGUGCACGUGAAAGAGAGAAGUGAACCAGAGAAUCACACGUUGUGGUAUAUUACCUGGUA — lower, 0.13
- GUCCUCUUUCACGUGUGCGUGAAAGAGAGAAGUGAACCAGUGAAACACACGUUGUGGUAUAUUACCUGGUA — higher, 1.4
- GUCCUCUUUCACGUGUGCGUGAAAGAGAGAAGUGAACCAGAGAAACACACGUUGUGGUAUAUUGCCUGGUA — lower, 0.505
- GUCCUCUUUCACGUGUGCGUGAAAGAGAGAAGUGCACCAGAGAAACACACGUUGUGGUAUAUUACCUGGUA — higher, 1.39
- GUCCUCUUUCACGUGUGCGUGAAAGAGAGAAGUGGACCAGAGAAACACACGUUGUGGUAUAUUACCUGGUA — higher, 0.937
- GUCCUCUUUCACGUGCACGUGAAGGAGAGAAGUGAACCAGAGAAACACACGUUGUGGUAUAUUACCUGGUA — lower, 0.824
- GUCCUCUUUCACGUGUGCGUGAAAGAGAGACGUGAACCAGAGAAACACACGUUGUGGUAUAUUACCUGGUA — lower, 0.165
- GUCCUCUUUCACGUGUGCGUGAAAGAGAGAAGUGAACCAGACAAACACACGUUGUGGUAUAUUACCUGGUA — lower, 0.346
- GUCCUCUUUCACGUGUGCGUGAAAGAGAGAAGUGAACCAGAUAAACACACGUUGUGGUAUAUUACCUGGUA — lower, 0.34
- GUCCUCUUUCACGUGUGCGUGAAAGAGAGAAGUGAACCAGAAAAACACACGUUGUGGUAUAUUACCUGGUA — lower, 0.225
- GUCCUCUUUCACGUGUGCGUGAAAGAGAGAAGUGAACCAGAGAAACACACGUUGUGGUUUAUUACCUGGUA — lower, 0.173
- GUCCUCUUUCACGUGCACGUGAAAGGGAGAAGUGAACCAGAGAAACACACGUUGUGGUAUAUUACCUGGUA — higher, 1.01
- GUCCUCUUUCACGUGCACGUGAAAGCGAGAAGUGAACCAGAGAAACACACGUUGUGGUAUAUUACCUGGUA — lower, 0.75
- GUCCUCUUUCACGUGUGCGUGAAAGAGAGAAGUGAACCAGAGAAACACACGUUGUGGUAUAUUACCUUGUA — lower, 0.329
- GUCCUCUUUCACGUGUGCGUGAAAGAGAGAAGUGAACCAGAGAAACACACGUUGUGGUAUAUUACCUCGUA — lower, 0.22
- GUCCUCUUUCACGUGUGCGUGAAAGAGAGAAGUGAACCAGAGAAACACACGUUGUGGUAUAUUACCUGGUA — higher, 1.04
- GUCCUCUUUCACGUGUGCGUGAAAGAGAGAAGUGAACAAGAGAAACACACGUUGUGGUAUAUUACCUGGUA — lower, 0.172
- GUCCUCUUUCACGUGUGCGAGAAAGAGAGAAGUGAACCAGAGAAACACACGUUGUGGUAUAUUACCUGGUA — lower, 0.817
- GUCCUCUUUCACGUGUGCGCGAAAGAGAGAAGUGAACCAGAGAAACACACGUUGUGGUAUAUUACCUGGUA — higher, 0.86
- GUCCUCUUUCACGUGUGCGUGAAAGAGAGAAGUGAACCAGAGAAACACACGUCGUGGUAUAUUACCUGGUA — lower, 0.564
- GUCCUCUUUCACGUGUGCGUGAAAGAGAGAAGUGAACCAGAGAAACACACGUAGUGGUAUAUUACCUGGUA — higher, 1.23
- GUCCUCUUUCACGUGUGCGUGAAAGAGAGAAGUGAACCAGAGAAACACACGUGGUGGUAUAUUACCUGGUA — higher, 1.05
- GUCCUCUUUCACGUGUGCGUGAAAGAGAGAAGUUAACCAGAGAAACACACGUUGUGGUAUAUUACCUGGUA — higher, 0.885
- GUCCUCUUUCACGUGUGCGUGAAAGAGAGAAGUAAACCAGAGAAACACACGUUGUGGUAUAUUACCUGGUA — higher, 1.26
- GUCCUCUUUCACGUGUGCGUGAAAGAGAGAAGUGAACCAGAGAAACACGCGUUGUGGUAUAUUACCUGGUA — lower, 0.659
- GUCCUCUUUCACGUGUGCGUGAAAGAGAGAAGUGAACCAGAGAAACACACGUUGUGGUAGAUUACCUGGUA — lower, 0.634
- GUCCUCUUUCACGUGUGCGUGAAAGAGAGAAGUGAGCCAGAGAAACACACGUUGUGGUAUAUUACCUGGUA — higher, 1.34
- GUCCUCUUUCACGUGUGCGUGAAAGAGAGAAGUGAACCAGAGAAACACACGUUGUUGUAUAUUACCUGGUA — lower, 0.189
- GUCCUCUUUCACGUGUGCGUGAAAGAGAGAAGUGAACCAGAGAAACACACGUUGUCGUAUAUUACCUGGUA — lower, 0.127
- GUCCUCUUUCACGUGUGCGUGAAACAGAGAAGUGAACCAGAGAAACACACGUUGUGGUAUAUUACCUGGUA — lower, 0.63
- GUCCUCUUUCACGUGUGCGUGAACGAGAGAAGUGAACCAGAGAAACACACGUUGUGGUAUAUUACCUGGUA — higher, 1.12
- GUCCUCUUUCACGUGUGCGUGAAAGAGAGAAGUGAACCAGAGAAACACACGUUGUGUUAUAUUACCUGGUA — lower, 0.266
- GUCCUCUUUCACGUGUGUGUGAAAGAGAGAAGUGAACCAGAGAAACACACGUUGUGGUAUAUUACCUGGUA — higher, 0.979
- GUCCUCUUUCACGUGUGCGUGAAAGAAAGAAGUGAACCAGAGAAACACACGUUGUGGUAUAUUACCUGGUA — lower, 0.536
- GUCCUCUUUCACGUGUGCGUGAAAGAGAGAAGUGAACCAGAGAAACACACGUUGUGGUAUAUUACCUGAUA — lower, 0.301
- GUCCUCUUUCACGUGUGCGUGAAAGAGAGAAGUGAACCAGAGAAACACACGUUGUGGUAUAUUACCUGUUA — lower, 0.267
- GUCCUCUUUCACGUGUGCGUGAAAGAGAGAAGUGAAGCAGAGAAACACACGUUGUGGUAUAUUACCUGGUA — lower, 0.182
- GUCCUCUUUCACGUGUGCGUGAAAGAGAGAAGUGAACCAGAGAAAUACACGUUGUGGUAUAUUACCUGGUA — lower, 0.143
- GUCCUCUUUCACGUGCACGUGAGAGAGAGAAGUGAACCAGAGAAACACACGUUGUGGUAUAUUACCUGGUA — lower, 0.824
- GUCCUCUUUCACGUGUGCGUGAAAGAGAGAAGUGAACCAGAGAAACACAUGUUGUGGUAUAUUACCUGGUA — lower, 0.366
- GUCCUCUUUCACGUGUGCGUGAAAGAGAGGAGUGAACCAGAGAAACACACGUUGUGGUAUAUUACCUGGUA — lower, 0.157
- GUCCUCUUUCACGUGUGCGUGAAAGAGAGAAGUGAACCAGAGAAACACACGUUGUGGUAUAUUAACUGGUA — higher, 1.15
- GUCCUCUUUCACGUGUGCGUGAAAGAGAGAAGUGAACCAGAGAAACACACGUUUUGGUAUAUUACCUGGUA — lower, 0.82
- GUCCUCUUUCACGUGUGCGUGAAAGAGAGAAGUGAACCAGAGAAACACACGUUCUGGUAUAUUACCUGGUA — lower, 0.411
- GUCCUCUUUCACGUGUGCGUGAAAGAGAUAAGUGAACCAGAGAAACACACGUUGUGGUAUAUUACCUGGUA — lower, 0.0547
- GUCCUCUUUCACGUGUGCGUGAAAGAGAGAAGUGAACCAGAGAACCACACGUUGUGGUAUAUUACCUGGUA — lower, 0.066
- GUCCUCUUUCACGUGUGCGUGAAAGAGAGAAGUGAACCAGAGAGACACACGUUGUGGUAUAUUACCUGGUA — lower, 0.101
- GUCCUCUUUCACGUGUGCGUGAAAGAGAGAAGUGAACCAGAGAUACACACGUUGUGGUAUAUUACCUGGUA — lower, 0.154
- GUCCUCUUUCACGUGUGCGUGAAAGAGAGAAGUGAACCAGAGACACACACGUUGUGGUAUAUUACCUGGUA — lower, 0.0379
- GUCCUCUUUCACGUGCACGUGAAAGAGAGAAGUGACCCAGAGAAACACACGUUGUGGUAUAUUACCUGGUA — lower, 0.607
- GUCCUCUUUCACGUGCACGUGAAAGAGAGAAGUGAGCCAGAGAAACACACGUUGUGGUAUAUUACCUGGUA — higher, 1.17
- GUCCUCUUUCACGUGCACGUGAAAGAGAGAAGUGAUCCAGAGAAACACACGUUGUGGUAUAUUACCUGGUA — lower, 0.544
- GUCCUCUUUCACGUGUGCGUGAAAGAGAGAAGUGAACCAGAGAAACACACGUUGUGGUAUAUUACCUGGUG — higher, 1.08
- GUCCUCUUUCACGUGCACGUGAAAGAGAGAAGUGAACCAGAGAUACACACGUUGUGGUAUAUUACCUGGUA — lower, 0.183
- GUCCUCUUUCACGUGUGCGUCAAAGAGAGAAGUGAACCAGAGAAACACACGUUGUGGUAUAUUACCUGGUA — lower, 0.749
- GUCCUCUUUCACGUGUGCGUUAAAGAGAGAAGUGAACCAGAGAAACACACGUUGUGGUAUAUUACCUGGUA — higher, 0.991
- GUCCUCUUUCACGUGUGCGUGAAAGAGAGAAGUGAACCAGAGAAACACACGUUGUGGUAUAUAACCUGGUA — lower, 0.253
- GUCCUCUUUCACGUGUGCGUGAAAGAGAGAAGUGAACCAGAGAAACACACGUUGUGGUAUAUGACCUGGUA — lower, 0.195
- GUCCUCUUUCACGUGCACGUGAAAGAGAGAAGUGAACCAGAGUAACACACGUUGUGGUAUAUUACCUGGUA — lower, 0.105
- GUCCUCUUUCACGUGCACGUGAAAGAGAGACGUGAACCAGAGAAACACACGUUGUGGUAUAUUACCUGGUA — lower, 0.144
